This is an account of results in IntAct's records for PubMed 25910212.

First the molecules themselves.
B1: DNA mismatch repair protein Mlh1 (Homo sapiens), P40692 (parent)
chain: MSFVAGVIRRLDETVVNRIAAGEVIQRPANAIKEMIENCLDAKSTSIQVIVKEGGLKLIQIQDNGTGIRKEDLDIVCERFTTSKLQSFEDLASISTYGFRGEALASISHVAHVTITTKTADGKCAYRASYSDGKLKAPPKPCAGNQGTQITVEDLFYNIATRRKALKNPSEEYGKILEVVGRYSVHNAGISFSVKKQGETVADVRTLPNASTVDNIRSIFGNAVSRELIEIGCEDKTLAFKMNGYISNANYSVKKCIFLLFINHRLVESTSLRKAIETVYAAYLPKNTHPFLYLSLEISPQNVDVNVHPTKHEVHFLHEESILERVQQHIESKLLGSNSSRMYFTQTLLPGLAGPSGEMVKSTTSLTSSSTSGSSDKVYAHQMVRTDSREQKLDAFLQPLSKPLSSQPQAIVTEDKTDISSGRARQQDEEMLELPAPAEVAAKNQSLEGDTTKGTSEMSEKRGPTSSNPRKRHREDSDVEMVEDDSRKEMTAACTPRRRIINLTSVLSLQEEINEQGHEVLREMLHNHSFVGCVNPQWALAQHQTKLYLLNTTKLSEELFYQILIYDFANFGVLRLSEPAPLFDLAMLALDSPESGWTEEDGPKEGLAEYIVEFLKKKAEMLADYFSLEIDEEGNLIGLPLLIDNYVPPLEGLPIFILRLATEVNWDEEKECFESLSKECAMFYSIRKQYISEESTLSGQQSEVPGSIPNSWKWTVEHIVYKALRSHILPPKHFTEDGNILQLANLPDLYKVFERC
B2: Tribbles homolog 3 (Homo sapiens), Q96RU7 (parent)
chain: MRATPLAAPAGSLSRKKRLELDDNLDTERPVQKRARSGPQPRLPPCLLPLSPPTAPDRATAVATASRLGPYVLLEPEEGGRAYQALHCPTGTEYTCKVYPVQEALAVLEPYARLPPHKHVARPTEVLAGTQLLYAFFTRTHGDMHSLVRSRHRIPEPEAAVLFRQMATALAHCHQHGLVLRDLKLCRFVFADRERKKLVLENLEDSCVLTGPDDSLWDKHACPAYVGPEILSSRASYSGKAADVWSLGVALFTMLAGHYPFQDSEPVLLFGKIRRGAYALPAGLSAPARCLVRCLLRREPAERLTATGILLHPWLRQDPMPLAPTRSHLWEAAQVVPDGLGLDEAREEEGDREVVLYG
B3: Vitamin D3 receptor (Homo sapiens), P11473 (parent)
chain: MEAMAASTSLPDPGDFDRNVPRICGVCGDRATGFHFNAMTCEGCKGFFRRSMKRKALFTCPFNGDCRITKDNRRHCQACRLKRCVDIGMMKEFILTDEEVQRKREMILKRKEEEALKDSLRPKLSEEQQRIIAILLDAHHKTYDPTYSDFCQFRPPVRVNDGGGSHPSRPNSRHTPSFSGDSSSSCSDHCITSSDMMDSSSFSNLDLSEEDSDDPSVTLELSQLSMLPHLADLVSYSIQKVIGFAKMIPGFRDLTSEDQIVLLKSSAIEVIMLRSNESFTMDDMSWTCGNQDYKYRVSDVTKAGHSLELIEPLIKFQVGLKKLNLHEEEHVLLMAICIVSPDRPGVQDAALIEAIQDRLSNTLQTYIRCRHPPPGSHLLYAKMIQKLADLRSLNEEHSKQYRCLSFQPECSMKLTPLVLEVFGNEIS
partner: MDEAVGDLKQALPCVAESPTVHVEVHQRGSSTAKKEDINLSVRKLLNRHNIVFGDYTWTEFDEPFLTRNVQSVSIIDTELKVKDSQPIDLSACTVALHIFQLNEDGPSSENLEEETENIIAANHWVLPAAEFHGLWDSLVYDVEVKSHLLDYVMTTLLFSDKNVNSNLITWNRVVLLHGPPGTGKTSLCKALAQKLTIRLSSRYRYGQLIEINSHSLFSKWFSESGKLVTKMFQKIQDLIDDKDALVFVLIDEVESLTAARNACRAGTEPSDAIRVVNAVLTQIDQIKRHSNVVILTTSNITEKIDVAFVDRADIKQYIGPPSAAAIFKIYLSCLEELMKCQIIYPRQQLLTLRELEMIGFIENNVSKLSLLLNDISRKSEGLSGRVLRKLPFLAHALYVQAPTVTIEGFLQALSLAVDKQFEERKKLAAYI
B4: Carbonic anhydrase-related protein (Homo sapiens), P35219 (parent)
chain: MADLSFIEDTVAFPEKEEDEEEEEEGVEWGYEEGVEWGLVFPDANGEYQSPINLNSREARYDPSLLDVRLSPNYVVCRDCEVTNDGHTIQVILKSKSVLSGGPLPQGHEFELYEVRFHWGRENQRGSEHTVNFKAFPMELHLIHWNSTLFGSIDEAVGKPHGIAIIALFVQIGKEHVGLKAVTEILQDIQYKGKSKTIPCFNPNTLLPDPLLRDYWVYEGSLTIPPCSEGVTWILFRYPLTISQLQIEEFRRLRTHVKGAELVEGCDGILGDNFRPTQPLSDRVIRAAFQ
partner: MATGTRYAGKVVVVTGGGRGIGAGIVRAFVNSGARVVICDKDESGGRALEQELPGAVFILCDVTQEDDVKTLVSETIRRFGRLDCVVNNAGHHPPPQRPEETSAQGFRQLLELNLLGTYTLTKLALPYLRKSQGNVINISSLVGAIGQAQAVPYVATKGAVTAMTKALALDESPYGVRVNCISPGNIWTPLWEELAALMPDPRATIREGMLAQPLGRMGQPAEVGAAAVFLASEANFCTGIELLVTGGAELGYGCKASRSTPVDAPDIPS
B5: E3 ubiquitin-protein ligase Midline-1 (Homo sapiens), O15344 (parent)
chain: METLESELTCPICLELFEDPLLLPCAHSLCFNCAHRILVSHCATNESVESITAFQCPTCRHVITLSQRGLDGLKRNVTLQNIIDRFQKASVSGPNSPSETRRERAFDANTMTSAEKVLCQFCDQDPAQDAVKTCVTCEVSYCDECLKATHPNKKPFTGHRLIEPIPDSHIRGLMCLEHEDEKVNMYCVTDDQLICALCKLVGRHRDHQVAALSERYDKLKQNLESNLTNLIKRNTELETLLAKLIQTCQHVEVNASRQEAKLTEECDLLIEIIQQRRQIIGTKIKEGKVMRLRKLAQQIANCKQCIERSASLISQAEHSLKENDHARFLQTAKNITERVSMATASSQVLIPEINLNDTFDTFALDFSREKKLLECLDYLTAPNPPTIREELCTASYDTITVHWTSDDEFSVVSYELQYTIFTGQANVVSLCNSADSWMIVPNIKQNHYTVHGLQSGTKYIFMVKAINQAGSRSSEPGKLKTNSQPFKLDPKSAHRKLKVSHDNLTVERDESSSKKSHTPERFTSQGSYGVAGNVFIDSGRHYWEVVISGSTWYAIGLAYKSAPKHEWIGKNSASWALCRCNNNWVVRHNSKEIPIEPAPHLRRVGILLDYDNGSIAFYDALNSIHLYTFDVAFAQPVCPTFTVWNKCLTIITGLPIPDHLDCTEQLP
partner: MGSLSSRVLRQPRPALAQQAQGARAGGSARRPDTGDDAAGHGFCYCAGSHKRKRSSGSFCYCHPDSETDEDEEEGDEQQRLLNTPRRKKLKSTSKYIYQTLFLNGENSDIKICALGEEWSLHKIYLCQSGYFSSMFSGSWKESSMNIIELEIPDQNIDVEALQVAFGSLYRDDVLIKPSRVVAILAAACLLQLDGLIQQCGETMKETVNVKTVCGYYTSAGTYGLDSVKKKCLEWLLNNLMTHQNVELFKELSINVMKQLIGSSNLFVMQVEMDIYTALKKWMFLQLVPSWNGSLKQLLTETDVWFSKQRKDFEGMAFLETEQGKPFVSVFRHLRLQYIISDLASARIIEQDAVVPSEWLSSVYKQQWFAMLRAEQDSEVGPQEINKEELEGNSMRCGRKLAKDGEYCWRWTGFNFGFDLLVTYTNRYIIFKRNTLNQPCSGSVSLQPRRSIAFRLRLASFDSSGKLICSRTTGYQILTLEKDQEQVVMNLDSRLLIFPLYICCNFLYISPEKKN
B6: Phospholamban (Homo sapiens), P26678 (parent)
chain: MEKVQYLTRSAIRRASTIEMPQQARQKLQNLFINFCLILICLLLICIIVMLL
B7: Interferon-inducible double-stranded RNA-dependent protein kinase activator A (Homo sapiens), O75569 (parent)
chain: MSQSRHRAEAPPLEREDSGTFSLGKMITAKPGKTPIQVLHEYGMKTKNIPVYECERSDVQIHVPTFTFRVTVGDITCTGEGTSKKLAKHRAAEAAINILKANASICFAVPDPLMPDPSKQPKNQLNPIGSLQELAIHHGWRLPEYTLSQEGGPAHKREYTTICRLESFMETGKGASKKQAKRNAAEKFLAKFSNISPENHISLTNVVGHSLGCTWHSLRNSPGEKINLLKRSLLSIPNTDYIQLLSEIAKEQGFNITYLDIDELSANGQYQCLAELSTSPITVCHGSGISCGNAQSDAAHNALQYLKIIAERK
partner: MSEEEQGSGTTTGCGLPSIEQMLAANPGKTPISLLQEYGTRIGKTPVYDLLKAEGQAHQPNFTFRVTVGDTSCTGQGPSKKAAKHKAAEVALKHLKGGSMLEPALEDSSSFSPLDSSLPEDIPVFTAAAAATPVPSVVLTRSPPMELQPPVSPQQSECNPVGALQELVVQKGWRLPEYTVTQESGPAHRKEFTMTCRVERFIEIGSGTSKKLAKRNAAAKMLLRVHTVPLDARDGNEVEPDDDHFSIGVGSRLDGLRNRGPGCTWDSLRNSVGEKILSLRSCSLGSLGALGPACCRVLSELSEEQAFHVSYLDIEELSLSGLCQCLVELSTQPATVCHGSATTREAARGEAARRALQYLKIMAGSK
B8: Acetylcholine receptor subunit gamma (Homo sapiens), P07510-2 (parent)
chain: MHGGQGPLLLLLLLAVCLGAQGRNQEERLLADLMQNYDPNLRPAERDSDVVNVSLKLTLTNLISLNEREEALTTNVWIEMQWCDYRLRWDPRDYEGLWVLRVPSTMVWRPDIVLENKSQTYSTNEIDLQLSQEDGQTIEWIFIDPEAFTENGEWAIQHRPAKMLLDPAAPAQEAGHQKVVFYLLIQRKPLFYVINIIAPCVLISSVAILIHFLPAKAGGQKCTVAINVLLAQTVFLFLVAKKVPETSQAVPLISKYLTFLLVVTILIVVNAVVVLNVSLRSPHTHSMARGVRKVFLRLLPQLLRMHVRPLAPAAVQDTQSRLQNGSSGWSITTGEEVALCLPRSELLFQQWQRQGLVAAALEKLEKGPELGLSQFCGSLKQAAPAIQACVEACNLIACARHQQSHFDNGNEEWFLVGRVLDRVCFLAMLSLFICGTAGIFLMAHYNRVPALPFPGDPRPYLPSPD

In the first test the parent is B1. To be noted: with AP2B1, P63010-2.
S44F: the “effect of a mutation on the interaction” value is listed as “disrupting interaction strength”.

A further test covers variants of B1. The following applies: with ccd33_human CCDC33, Q8N5R6.
As for S44F, the “effect of a mutation on the interaction” value is listed as “disrupting interaction strength”.

Another test covers variants of B1. The following applies: with taso2_human TASOR2, Q5VWN6.
Consider S44F, for which the “effect of a mutation on the interaction” value is given as “disrupting interaction strength”.

Variants of B2 are the subject of another test. The following applies: with atf4_human ATF4, P18848.
Q84R: the “effect of a mutation on the interaction” value is reported as “with no effect”.

In a further test the parent is B2. To be noted: with mdfi_human MDFI.
For the variant Q84R, the “effect of a mutation on the interaction” value is on record as “with no effect”.

Variants of B3 are the subject of the next test. To be noted: with pch2_human TRIP13, Q15645.
For C190W, the “effect of a mutation on the interaction” value is given as “with no effect”.

Take I268T: the “effect of a mutation on the interaction” value was “with no effect”.

Turning to G33D, the “effect of a mutation on the interaction” value is listed as “with no effect”.

Consider E329K, for which the “effect of a mutation on the interaction” value is “disrupting interaction strength”.

Variants of B4 are the subject of another test. To be noted: with dhb14_human HSD17B14, Q9BPX1.
Regarding S100P, the “effect of a mutation on the interaction” value is “disrupting interaction strength”.

Variants of B5 are the subject of the next test. To be noted: with gmcl1_human GMCL1, Q96IK5.
As for C266R, the “effect of a mutation on the interaction” value is “with no effect”.

Regarding K370E, the “effect of a mutation on the interaction” value is given as “with no effect”.

L626P: the “effect of a mutation on the interaction” value was “with no effect”.

As for P151L, the “effect of a mutation on the interaction” value is on record as “with no effect”.

The next test covers variants of B6. To be noted: with BCL2L13, Q9BXK5.
As for R9C, the “effect of a mutation on the interaction” value is listed as “with no effect”.

The variants in another test derive from B6. The following applies: with eda_human EDA.
Regarding R9C, the “effect of a mutation on the interaction” value is “with no effect”.

Another test covers variants of B7. To be noted: with trbp2_human TARBP2, Q15633.
As for P222L, the “effect of a mutation on the interaction” value was “with no effect”.

In another test the parent is B8. The following applies: with mdfi_human MDFI.
As to R187C, the “effect of a mutation on the interaction” value is listed as “disrupting interaction strength”.

Variants of B8 are the subject of the next test. To be noted: with nt2na_human NOTCH2NLA.
As to R187C, the “effect of a mutation on the interaction” value is recorded as “disrupting interaction strength”.

Variants of B8 are the subject of another test. To be noted: with k1h1_human KRT31, Q15323.
For the variant R187C, the “effect of a mutation on the interaction” value is recorded as “disrupting interaction strength”.

Variants of B8 are the subject of a further test. The following applies: with meox2_human MEOX2, P50222.
R187C: the “effect of a mutation on the interaction” value is listed as “disrupting interaction strength”.
